This passage reports Km, kcat and kcat/Km results from patent US20170137855A1, “RECOMBINANT CELLS AND METHODS FOR NONPHOSPHORYLATIVE METABOLISM” (REGENTS OF THE UNIVERSITY OF MINNESOTA, priority 2015, published 2017).

Substrate in data set [1]: O=C(O)[C@H](O)[C@@H](O)[C@H](O)CO
As to the kind of experiment: C. crescentus D-xylonate dehydratase, semicarbazide method. In kind it is biochemical, Caulobacter crescentus. To be noted: other: 100 nM enzyme, 100 mM Tris-HCl, 5 mM MgSO4, pH 7.5. The text has this: (§1) Finally, the 2-ketoacids produced were quantified by detecting their semicarbazone absorbance at 250 nm.

Substrate in data set [2]: O=C(O)C(=O)C[C@H](O)CO
As to the kind of experiment: B. xenovorans 2-keto-3-deoxy-D-xylonate dehydratase, coupled assay with KGSADH. The data set is classed as biochemical, Burkholderia xenovorans LB400. To be noted: other: coupled assay, substrate from 0-20 mM D-xylonate, 1 mM NAD+, pH 7.5, 25° C. The procedure: (§2) 2-Keto-3-deoxy-D-xylonate dehydratase (XylX/DR64-8450), 2-keto-3-deoxy-L-arabonate dehydratase (AraD) and 5-keto-4-deoxy-D-glucarate dehydratase (YcbC): Enzyme activities of XylX, DR64-8450, AraD and YcbC were assayed spectrophotometrically in a coupled assay with the corresponding previous dehydratase and 2-ketoglutaric semialdehyde dehydrogenase (KGSADH) as previously described (Watanabe et al., 2006. J Biol. Chem. 281:33521-33536). […] The reaction was initiated by adding an appropriate amount of 2-keto-3-deoxy-D-xylonate dehydratase (XylX/DR64-8450)/2-keto-3-deoxy-L-arabonate dehydratase (AraD)/5-keto-4-deoxy-D-glucarate dehydratase (YcbC), and the increasing absorbance at 340 nm caused by NADH produced in the reaction was monitored.

Substrate in data set [3]: O=C(O)C(=O)C[C@H](O)CO
Kind of data set: C. crescentus 2-keto-3-deoxy-D-xylonate dehydratase, coupled assay with KGSADH. The data set is classed as biochemical, Caulobacter crescentus. To be noted: other: coupled assay, substrate from 0-20 mM D-xylonate, 1 mM NAD+, pH 7.5, 25° C. The procedure: as §2

Substrate in data set [4]: O=C(O)[C@@H](O)[C@H](O)[C@H](O)[C@@H](O)C(=O)O
Kind of data set: purified protein, by the assay type. As to conditions: other: 100 nM enzyme, 100 mM Tris-HCl, 5 mM MgSO4, pH 7.5.

Substrate in data set [5]: OC1OC[C@H](O)[C@H](O)[C@H]1O
As to the kind of experiment: L-arabinose dehydrogenase, NADH generation at 340 nm. To be noted: other: L-arabinose 0 to 10 mM, 1 mM NAD+, pH 7.5, 30° C. In kind it is biochemical, Burkholderia multivorans. The procedure:
A series of enzymatic assays were conducted to estimate the initial activity as a function of starting substrate concentration. […] Kinetic constants (kcat/Km) for following enzymes were calculated with the same method.

Substrate in data set [6]: O=C(O)[C@H](O)[C@@H](O)[C@@H](O)CO
Kind of data set: L-arabonate dehydratase, semicarbazide method. The data set is classed as biochemical, Burkholderia multivorans. As to conditions: other: 100 nM enzyme, 100 mM Tris-HCl, 5 mM MgSO4, pH 7.5.
Text: as §1

Substrate in data set [7]: O=C(O)[C@H](O)[C@@H](O)[C@H](O)CO
As to the kind of experiment: B. xenovorans D-xylonate dehydratase, semicarbazide method. The data set is classed as biochemical, Burkholderia xenovorans LB400. To be noted: other: 100 nM enzyme, 100 mM Tris-HCl, 5 mM MgSO4, pH 7.5.
Text: as §1

Substrate in data set [8]: O=C(O)[C@H]1OC(O)[C@H](O)[C@@H](O)[C@H]1O
As to the kind of experiment: purified protein, by the assay type. As to conditions: other: D-galacturonate 0 to 10 mM, 1 mM NAD+, pH 7.5, 30° C., 30.0 °C.

Substrate in data set [9]: O=C(O)C(=O)C[C@@H](O)CO
Kind of data set: 2-keto-3-deoxy-L-arabonate dehydratase, coupled assay with KGSADH. In kind it is biochemical, Burkholderia multivorans. As to conditions: other: coupled assay, substrate from 0-20 mM L-arabonate, 1 mM NAD+, pH 7.5, 25° C. The procedure: as §2

B1: Caulobacter crescentus D-xylonate dehydratase (XylD) (Caulobacter vibrioides CB15) (protein)
chain: MRSALSNRTPRRFRSRDWFDNPDHIDMTALYLERFMNYGITPEELRSGKPIIGIAQTGSDISPCNRIHLDLVQRVRDGIRDAGGIPMEFPVHPIFENCRRPTAALDRNLSYLGLVETLHGYPIDAVVLTTGCDKTTPAGIMAATTVNIPAIVLSGGPMLDGWHENELVGSGTVIWRSRRKLAAGEITEEEFIDRAASSAPSAGHCNTMGTASTMNAVAEALGLSLTGCAAIPAPYRERGQMAYKTGQRIVDLAYDDVKPLDILTKQAFENAIALVAAAGGSTNAQPHIVAMARHAGVEITADDWRAAYDIPLIVNMQPAGKYLGERFHRAGGAPAVLWELLQQGRLHGDVLTVTGKTMSENLQGRETSDREVIFPYHEPLAEKAGFLVLKGNLFDFAIMKSSVIGEEFRKRYLSQPGQEGVFEARAIVFDGSDDYHKRINDPALEIDERCILVIRGAGPIGWPGSAEVVNMQPPDHLLKKGIMSLPTLGDGRQSGTADSPSILNASPESAIGGGLSWLRTGDTIRIDLNTGRCDALVDEATIAARKQDGIPAVPATMTPWQEIYRAHASQLDTGGVLEFAVKYQDLAAKLPRHNH
notes: His; made in house; host or cells: E. coli BL21
What is called Km is the concentration of substrate that gives half-maximal velocity. What is called kcat is the number of substrate molecules converted per active site and unit of time at saturation. In general, kcat/Km refers to the second-order rate constant that governs catalysis at low substrate concentration. For B1, in [1], the Michaelis constant (Km) amounted to 1180 ± 50 µM, the catalytic constant (kcat) was 7.6 ± 1.1 s⁻¹ and the kcat/Km stood at 6400 M⁻¹ s⁻¹.

B2: Burkholderia xenovorans LB400 2-keto-3-deoxy-D-xylonate dehydratase (DR64_8450) (Paraburkholderia xenovorans LB400) (protein)
chain: MSATSPSSFLPDDLGQALLVGRVWRKTDQHEGPSVVVVRGGEVFDITATVPTTADLFDREDAAPLARTAPGVSLGAVAQLIASNLPGAAAPALRLLAPCDVQAIKACGVTFAVSLIERVIEEQAAGDPAKAKEVRDTIASMIGTDLSKIEPGSDAAMKLKAELERRGAWSQYMEVGIGPDAEVFSKSQPMSAVGFGADVGLLAASTWNNPEPEIVLAVNSRGEIVGATLGNDVNLRDIEGRSALLLGKCKDNNGSCAIGPFVRLFDESFSLDSVRTASVALRVEGADDGFVLEGVSHMSEISRDPANLVAQTWGRHHQYPDGFMLFLGTMFSPIKDRDAPGAGFTHHLGDLVTISTPQLGALTNTVRLSTEIEPWTFGVRALYRNLAARGLLASA
notes: coupled with D-xylonate dehydratase and KGSADH
B2: in data set [2], the Michaelis-Menten constant (Km) was determined as 8960 ± 200 µM, the kcat worked out at 4.72 ± 0.5 s⁻¹ and the specificity constant (kcat/Km) was 530 M⁻¹ s⁻¹.

B3: Caulobacter crescentus 2-keto-3-deoxy-D-xylonate dehydratase (XylX) (Caulobacter vibrioides NA1000) (protein)
chain: MGVSEFLPEDWKAATLLGRIDFGEGPTPVLVRGGRVEDVSKIAPTVADLMNAFQPGAVIPRGEDKGPLEALDIRPVWEDPDGAAPVKLLAPVDLQCLKAAGVTFAVSTLERVIEERARGDAGEALKIRTLLAERMGGDLKSVEPGSQGAQRLKDALIADGLWSQYLEVAIGPDAEIFTKGPTLSSMGWGDQVGVRYDSHWNNPEPEVVLLCDGSGLIRGAALGNDVNLRDFEGRSALLLSKAKDNNASCAIGPFFRLFDETFGLDDVRSAEVELKITGRDNFVLDGKSNMSLISRDPAVLAGQAYGKQHQYPDGFALFLGTMFAPIQDRDTPGQGFTHKVGDRVRVSTPKLGVLENEVTTCDKAKPWTFGISALIRNLAGRGLL
notes: coupled with XylD and KGSADH; BlpI site removed in gene
As to B3, in data set [3], the Km worked out at 1900 ± 80 µM, the kcat worked out at 0.53 ± 0.1 s⁻¹ and the kcat/Km was 260 M⁻¹ s⁻¹.

B4: E. coli D-galactarate dehydratase (GarD) (Escherichia coli K-12) (protein)
chain: MANIEIRQETPTAFYIKVHDTDNVAIIVNDNGLKAGTRFPDGLELIEHIPQGHKVALLDIPANGEIIRYGEVIGYAVRAIPRGSWIDESMVVLPEAPPLHTLPLATKVPEPLPPLEGYTFEGYRNADGSVGTKNLLGITTSVHCVAGVVDYVVKIIERDLLPKYPNVDGVVGLNHLYGCGVAINAPAAVVPIRTIHNISLNPNFGGEVMVIGLGCEKLQPERLLTGTDDVQAIPVESASIVSLQDEKHVGFQSMVEDILQIAERHLQKLNQRQRETCPASELVVGMQCGGSDAFSGVTANPAVGYASDLLVRCGATVMFSEVTEVRDAIHLLTPRAVNEEVGKRLLEEMEWYDNYLNMGKTDRSANPSPGNKKGGLANVVEKALGSIAKSGKSAIVEVLSPGQRPTKRGLIYAATPASDFVCGTQQVASGITVQVFTTGRGTPYGLMAVPVIKMATRTELANRWFDLMDINAGTIATGEETIEEVGWKLFHFILDVASGKKKTFSDQWGLHNQLAVFNPAPVT
With B4, in [4], the Michaelis-Menten constant (Km) is 760 µM and the turnover number (kcat) was found to be 18.9 s⁻¹.

B5: Burkholderia multivorans L-arabinose dehydrogenase (AraA, BmulJ 5320) (Burkholderia multivorans ATCC 17616) (protein)
chain: MSQVVSLGVVGIGKIARDQHLPAIAAEPGFALTACASRHAEVTGVRNYPDLGALLAGEPELAAVSLCAPPQVRYAQARAALNAGKHVMLEKPPGATLGEVAALEALAQSRGLTLFATWHSRCASAVEPARAWLATREIRAVQVRWKEDVRRWHPGQQWIWEPGGLGVFDPGINALSIVTRILPRELVLREATLVVPSDTQTPIAAELECADTDGVPVHAEFDWRHGPVEQWEIAVDTADGVLAISAGGAKLSIAGEPVEVGPAREYPALYAQFHALIARRESDVDVRPLRLVADAFLFGRRVDTEAFGR
notes: gene from B. multivorans genomic DNA
Turning to B5, the kcat in [5] amounted to 101.4 s⁻¹.

B6: Burkholderia multivorans L-arabonate dehydratase (AraC, BmulJ 5323) (Burkholderia multivorans ATCC 17616) (protein)
chain: MSATKPRLRSAQWFGTNDKNGFMYRSWMKNQGIPDHEFDGRPIIGICNTWSELTPCNAHFRKLAEHVKRGIFEAGGFPVEFPVFSNGESNLRPSAMLTRNLASMDVEEAIRGNPIDAVVLLAGCDKTTPALLMGAASCDVPAIVVSGGPMLNGKLEGKNIGSGTAVWQLHEALKAGEIDLHHFLSAEAGMSRSAGTCNTMGTASTMACMAEALGVALPHNAAIPAVDSRRYVLAHMSGIRIVEMALEGLVLSKVLTRAAFENAIRVNAAIGGSTNAVIHLKAIAGRIGVPLELEDWMRIGRDTPTIVDLMPSGRFLMEEFYYAGGLPAVLRRLGEGGLLPHPDALTVNGKTLWDNVREAPNYDDEVIRPLDRPLIADGGIRILRGNLAPRGAVLKPSAASPELLKHRGRAVVFENFDHYKATINDESLDVDANSVLVLKNCGPRGYPGMAEVGNMGLPPKLLRQGVKDMVRISDARMSGTAYGTVVLHVAPEAAAGGPLAAVRNGDWIELDCEAGTLHLDIPDDELQRRLSDVDPAAAPGVAGQAGKGGYARLYLDHVLQADEGCDLDFLVGTRGAEVPSHSH
notes: as for B5
Turning to B6, the kcat in data set [6] came out at 0.17 s⁻¹.

B7: Burkholderia xenovorans LB400 D-xylonate dehydratase (DR64_8449) (Paraburkholderia xenovorans LB400) (protein)
chain: MSASTPRRLRSQEWFDDPSHADMTALYVERFMNYGLTREELQSGRPIIGIAQTGSDLAPCNRHHIELAARTKAGIRDAGGIPMEFPVHPLAEQSRRPTAALDRNLAYLGLVEILHGFPLDGVVLTTGCDKTTPACLMAAATVDMPAIVLSGGPMLDGWHEGKRVGSGTVIWHARNLLATGEIDYEGFMQLTTASSPSIGHCNTMGTALSMNSLAEALGMSLPGCASIPAAYRERGQMAYATGKRIVDLVREDVRPSHIMTKAAFENAIVVASALGASTNCPPHLIAIARHMGVELTLDDWQRVGEQVPLIVNCMPAGEYLGESFHRAGGVPAVLRELVHAQLVHRECLTVSGRTIGEIAADAPSPDRDVIRTTEDPLKHGAGFIVLSGNFFDSAIMKMSVVGEAFRQTYLSEPGNENTFEARAIVFDGPEDYHARINDPSLDIDQHCILVIRGAGTVGYPGSAEVVNMAPPAELVRQGITSLPTLGDGRQSGTSASPSILNMSPEAAVGGGLSLLRTNDRIRVDLNSRSVNVLVDDEELARRRETATFAIPPTQTPWQELYRQTVGQLSTGGCLEPATLYLKVIAERGNPRHSH
notes: gene from LB400 genomic DNA
With B7, in [7], the Km is 1520 ± 80 µM, the turnover number (kcat) is 1.73 ± 0.3 s⁻¹ and the kcat/Km came out at 1140 M⁻¹ s⁻¹.

B8: Pseudomonas putida KT2440 uronate dehydrogenase (Udh) (Pseudomonas putida KT2440) (protein)
chain: MTTTPFNRLLLTGAAGGLGKVLRERLKGYAEVLRLSDISPMAPAAGPHEEVITCDLADKAAVHTLVEGVDAIIHFGGVSTEHAFEEILGPNICGVFHVYEAARKHGVKRIIFASSNHTIGFYRQDERIDAHAPRRPDSYYGLSKCYGEDVASFYFDRYGIETVSIRIGSSFPQPQNLRMLCTWLSYDDLVQLIERGLFTPGVGHTIVYGASDNRTVWWDNRHAAHLGYVPKDSSETFRAAVEAQPAPAADDPSMVYQGGAFAVAGPFN
Take B8: in data set [8], the Km came out at 150 µM and the turnover number (kcat) was 24.1 s⁻¹.

B9: Burkholderia multivorans 2-keto-3-deoxy-L-arabonate dehydratase (AraD, BmulJ 5321) (Burkholderia multivorans ATCC 17616) (protein)
chain: MTSSRTPRYRGIFPVVPTTFTETGELDLASQKRAVDFMIDAGSDGLCILANFSEQFALADDERDVLTRTILEHVAGRVPVIVTTSHYSTQTCIARSVRAQQLGAAMVMVMPPYHGATFRVPEAQIHAFYARLSDALSIPIMIQDAPASGTVLSAPFLAQLAREIEHVAYFKIETPGAATKLRELIRLGGDAIEGPWDGEEAITLLADLHAGATGAMTGGAYPDGIRPILEAHREGRHDDAFARYQTWLPLINHENRQSGILTAKALMREGGVIACEAPRHPMPTLHPDTRAELIAIARRLDPLVLRWAR
notes: coupled with AraC and KGSADH
With B9, in data set [9], the Km was determined as 9700 µM and the kcat is 0.23 s⁻¹.
